# Reference: US7888116B2, “Uses of notch receptors, notch ligands, and notch modulators in methods related to metabolic diseases” (The United States of America as represented by the …, priority 2005, dated 2011)
# Tested on: Notch-1 (NICD)
# Assay: NICD nuclear translocation in RIN cells (indirect immunofluorescence, immunoblot of nuclear extracts)
# Type: cell-based, rat
# Conditions: RIN cells treated with secretagogues
# Description: Islet isolation, cell culture and treatments. Adult rat (Sprague-Dawley) and mouse (C57/BL6) islets were isolated by collagenase P digestion and cultured overnight in M199 medium (5 mM glucose). RIN 1046-38 β-cells were cultured as outlined previously (Wang, et al., Endocrinology, 142:1820-1827 (2001)). Isolated human islets came from David Harlan, Transplant Section, NIDDK. Ex-4, GLP-1, CCK (all used at concentrations previously shown to cause maximum insulin release), Ex and the γ-secretase inhibitor, L-685,458, were obtained from Bachem. H89 was from Calbiochem, insulin was from Sigma. The Jagged peptides, R-JAG […] (SEQ ID NO:1), JAG-1 […] (SEQ ID NO:2), and scrambled control peptide without agonist activity, sc-Jagged […] (Nickoloff, et al., Cell Death Differ, 9842-855 (2002)) (SEQ ID NO:3), were synthesised by New England Peptide Inc. […]
# RIN cells were permeabilized in Triton-X (0.1%) on ice and blocked for 1 h at room temperature in 3% BSA and 0.1% Tween in PBS. They were incubated overnight at 4° C. with the primary antibody, washed in PBS and incubated with fluorescent labelled secondary antibody for 1 h, washed and mounted with fluorescence mounting medium (Vector Laboratories). […] AlexaFluor antibodies (Molecular Probes; Eugene, Oreg.) were excited with the 488-nm line of a krypton-argon laser and recorded at the presence of emission filter BP515-565 nm. […]
molecule,measurement,value
"Cholecystokinin (peptide, UniProt P06307 21-115, looked up, Cholecystokinin, increases insulin secretion in a non-cAMP dependent manner) Cholecystokinin: QPVPPADPAGSGLQRAEEAPRRQLRVSQRTDGESRAHLGALLARYIQQARKAPSGRMSIVKNLQNLDPSHRISDRDYMGWMDFGRRSAEEYEYPS",nuclear NICD / NICD translocation,did not increase NICD translocation above that seen with glucose alone
